What all share (assay): EMSA
What all share (conditions): tags: MBP fusion

One data set concerns the target ZFP SBS#242 (synthetic, UniProt P08047). Here is the method: (§1) Affinity is measured by titrating purified protein against a fixed amount of labeled double-stranded oligonucleotide target. The target typically comprises the natural binding site sequence flanked by the 3 bp found in the natural sequence and additional, constant flanking sequences. The natural binding site is typically 9 bp for a three-finger protein and 2×9 bp +intervening bases for a six finger ZFP. […] For the assay the target is added at a concentration of 1 nM or lower (the actual concentration is kept at least 10-fold lower than the expected dissociation constant), purified ZFPs are added at various concentrations, and the reaction is allowed to equilibrate for at least 45 min. In addition the reaction mixture also contains 10 mM Tris (pH 7.5), 100 mM KCl, 1 mM MgCl2, 0.1 mM ZnCl2, 5 mM DTT, 10% glycerol, 0.02% BSA. (NB: in earlier assays poly d(IC) was also added at […].) The equilibrated reactions are loaded onto a 10% polyacrylamide gel, which has been pre-run for 45 min in Tris/glycine buffer, then bound and unbound labeled target is resolved by electrophoresis at 150V.

The target in a further data set is T1, ZFP SBS#238 (synthetic, UniProt P08047).
T1 chain: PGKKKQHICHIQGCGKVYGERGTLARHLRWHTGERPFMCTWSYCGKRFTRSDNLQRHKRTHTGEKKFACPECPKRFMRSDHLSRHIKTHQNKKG
Here is the method:
as §1

The target in the next data set is T2, ZFP SBS#237 (synthetic, UniProt P08047).
T2 chain: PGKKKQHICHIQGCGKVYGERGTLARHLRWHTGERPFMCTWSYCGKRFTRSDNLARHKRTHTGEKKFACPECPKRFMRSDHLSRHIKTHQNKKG
Here is the method: as §1

In another data set the target is T3, ZFP SBS#283 (synthetic).
T3 chain: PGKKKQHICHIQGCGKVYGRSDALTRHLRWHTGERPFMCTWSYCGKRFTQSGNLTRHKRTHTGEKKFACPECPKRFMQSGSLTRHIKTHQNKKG
On the procedure:
as §1

In a further data set the target is ZFP SBS#247 (synthetic). On the procedure:
as §1

The next data set concerns the target ZFP SBS#246 (synthetic). Here is the method:
as §1

A further data set concerns the target T4, ZFP SBS#207 (synthetic).
T4 chain: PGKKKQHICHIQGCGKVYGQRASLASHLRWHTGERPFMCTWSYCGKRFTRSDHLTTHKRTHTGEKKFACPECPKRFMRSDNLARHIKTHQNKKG
Here is the method: as §1

In a further data set the target is ZFP SBS#233 (synthetic). Here is the method: as §1
The target of the next data set is ZFP SBS#232 (synthetic). On the procedure:
as §1

The target in a further data set is ZFP SBS#217 (synthetic). On the procedure:
as §1

The target of the next data set is T5, ZFP SBS#223 (synthetic).
T5 chain: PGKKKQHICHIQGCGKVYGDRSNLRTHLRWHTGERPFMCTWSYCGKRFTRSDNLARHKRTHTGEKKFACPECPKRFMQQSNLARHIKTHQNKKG
On the procedure: as §1

The next data set addresses T6, ZFP SBS#250 (synthetic).
T6 chain: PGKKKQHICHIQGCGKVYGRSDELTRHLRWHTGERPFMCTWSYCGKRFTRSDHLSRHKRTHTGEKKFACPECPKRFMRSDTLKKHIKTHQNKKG
On the procedure:
as §1

In a further data set the target is ZFP SBS#249 (synthetic). On the procedure: as §1
A further data set concerns the target ZFP SBS#240 (synthetic). On the procedure: as §1
In another data set the target is T7, ZFP SBS#243 (synthetic).
T7 chain: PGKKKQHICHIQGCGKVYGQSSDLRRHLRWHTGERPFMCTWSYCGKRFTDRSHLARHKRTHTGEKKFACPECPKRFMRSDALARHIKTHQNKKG
On the procedure: as §1

For a further data set, the target named is T8, ZFP SBS#235 (synthetic).
T8 chain: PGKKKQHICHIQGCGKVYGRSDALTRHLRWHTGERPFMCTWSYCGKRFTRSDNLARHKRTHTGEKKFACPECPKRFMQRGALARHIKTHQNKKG
Here is the method: as §1

A further data set concerns the target ZFP SBS#289 (synthetic). On the procedure:
as §1

A further data set concerns the target T9, ZFP SBS#265 (synthetic).
T9 chain: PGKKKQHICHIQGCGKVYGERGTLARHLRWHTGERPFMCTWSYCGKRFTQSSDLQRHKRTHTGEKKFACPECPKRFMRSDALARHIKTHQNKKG
On the procedure:
as §1

In a further data set the target is T10, ZFP SBS#264 (synthetic).
T10 chain: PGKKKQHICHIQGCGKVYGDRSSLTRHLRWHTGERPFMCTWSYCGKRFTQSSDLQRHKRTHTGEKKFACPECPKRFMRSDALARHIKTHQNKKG
On the procedure:
as §1

A further data set deals with T11, ZFP SBS#205 (synthetic).
T11 chain: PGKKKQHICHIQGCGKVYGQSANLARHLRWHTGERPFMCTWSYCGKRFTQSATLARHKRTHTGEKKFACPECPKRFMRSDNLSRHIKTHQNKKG
On the procedure:
as §1

The target in another data set is T12, ZFP SBS#272 (synthetic).
T12 chain: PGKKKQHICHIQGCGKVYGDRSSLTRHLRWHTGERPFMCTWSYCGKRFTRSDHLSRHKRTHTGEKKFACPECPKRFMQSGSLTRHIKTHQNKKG
On the procedure:
as §1

The target of the next data set is ZFP SBS#245 (synthetic). On the procedure:
as §1

A further data set has as its target ZFP SBS#244 (synthetic). On the procedure:
as §1

For a further data set, the target named is T13, ZFP SBS#225 (synthetic, UniProt P08047).
T13 chain: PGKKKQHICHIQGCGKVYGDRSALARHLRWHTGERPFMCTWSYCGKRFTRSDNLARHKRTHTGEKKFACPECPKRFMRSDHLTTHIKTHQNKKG
Here is the method: as §1

The target of the next data set is T14, ZFP SBS#270 (synthetic).
T14 chain: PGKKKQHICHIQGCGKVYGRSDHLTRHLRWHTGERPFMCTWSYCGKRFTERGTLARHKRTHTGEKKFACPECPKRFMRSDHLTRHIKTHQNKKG
On the procedure:
as §1

The target in the next data set is T15, ZFP SBS#269 (synthetic).
T15 chain: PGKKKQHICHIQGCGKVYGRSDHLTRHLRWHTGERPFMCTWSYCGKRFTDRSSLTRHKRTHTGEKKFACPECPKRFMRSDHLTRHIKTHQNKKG
Here is the method: as §1

In the next data set the target is ZFP SBS#239 (synthetic). On the procedure:
as §1

The target in another data set is T16, ZFP SBS#236 (synthetic, UniProt P08047).
T16 chain: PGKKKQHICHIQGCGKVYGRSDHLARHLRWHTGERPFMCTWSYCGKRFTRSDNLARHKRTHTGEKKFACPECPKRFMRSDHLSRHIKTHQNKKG
Here is the method:
as §1

The target of another data set is ZFP SBS#211 (synthetic). On the procedure:
as §1

The target in the next data set is T17, ZFP SBS#210 (synthetic).
T17 chain: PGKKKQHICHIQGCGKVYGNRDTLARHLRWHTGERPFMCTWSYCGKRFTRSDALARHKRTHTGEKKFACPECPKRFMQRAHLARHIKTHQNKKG
On the procedure: as §1

A further data set addresses ZFP SBS#209 (synthetic). On the procedure: as §1
The target in the next data set is T18, ZFP SBS#212 (synthetic).
T18 chain: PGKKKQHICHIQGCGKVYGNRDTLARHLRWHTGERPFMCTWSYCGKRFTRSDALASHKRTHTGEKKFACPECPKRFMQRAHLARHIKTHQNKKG
On the procedure:
as §1

ZFP SBS#289 (synthetic), sequence (chain, as listed by the source): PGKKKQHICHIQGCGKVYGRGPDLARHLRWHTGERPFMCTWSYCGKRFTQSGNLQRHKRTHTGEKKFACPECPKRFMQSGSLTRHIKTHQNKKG
ZFP SBS#211 (synthetic), sequence (chain, as listed by the source): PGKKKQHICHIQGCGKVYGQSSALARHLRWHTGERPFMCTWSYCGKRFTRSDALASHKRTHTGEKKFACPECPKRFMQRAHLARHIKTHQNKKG
ZFP SBS#217 (synthetic), sequence (chain, as listed by the source): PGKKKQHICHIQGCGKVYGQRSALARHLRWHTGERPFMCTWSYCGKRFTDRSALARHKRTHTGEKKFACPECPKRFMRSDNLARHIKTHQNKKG
ZFP SBS#242, sequence (P08047 other isoform, or with tags, fused parts or gaps): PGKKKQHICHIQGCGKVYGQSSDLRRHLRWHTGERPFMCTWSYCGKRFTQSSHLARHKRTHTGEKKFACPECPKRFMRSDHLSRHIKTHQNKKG
ZFP SBS#233 (synthetic), sequence (chain, as listed by the source): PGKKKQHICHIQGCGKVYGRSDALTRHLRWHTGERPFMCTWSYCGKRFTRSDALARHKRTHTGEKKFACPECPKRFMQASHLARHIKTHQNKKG
ZFP SBS#249 (synthetic), sequence (chain, as listed by the source): as the sequence (P08047 other isoform, or with tags, fused parts or gaps) above, with Q20R, S22D, D23E, R25T, Q50R, S52D, A55S, H81E, S83R counted along it
ZFP SBS#240 (synthetic), sequence (chain, as listed by the source): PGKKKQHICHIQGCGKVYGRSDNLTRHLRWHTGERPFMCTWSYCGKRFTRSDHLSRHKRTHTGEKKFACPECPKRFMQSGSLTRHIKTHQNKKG
ZFP SBS#209 (synthetic), sequence (chain, as listed by the source): as the sequence (P08047 other isoform, or with tags, fused parts or gaps) above, with D23A, R25A, Q50R, S52D, H53A, R78Q, S79R, D80A, S83A counted along it
ZFP SBS#245 (synthetic), sequence (chain, as listed by the source): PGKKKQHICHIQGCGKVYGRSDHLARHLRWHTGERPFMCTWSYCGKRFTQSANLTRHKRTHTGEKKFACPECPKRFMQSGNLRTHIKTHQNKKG
ZFP SBS#246 (synthetic), sequence (chain, as listed by the source): as the sequence (P08047 other isoform, or with tags, fused parts or gaps) above, with Q20R, S22D, D23N, R25A, Q50R, S52D, R78Q, D80G, H81N, S83T counted along it

B1: GGGGGTGCT (dsDNA)
DNA 1: GGGGGTGCT
DNA 2: AGCACCCCC
B1: the dissociation constant Kd with ZFP SBS#242 was 0.001 µM.

B2: GGGGAGGCC (dsDNA)
DNA 1: GGGGAGGCC
DNA 2: GGCCTCCCC
With B2, the results for the Kd with ZFP SBS#238 and in the data set with ZFP SBS#237 were 0.0008 µM and 0.0003 µM, respectively.

B3: GCAGAAGTG (dsDNA)
DNA 1: GCAGAAGTG
DNA 2: CACTTCTGC
The molecule B3 had a Kd with ZFP SBS#283 of 0.002 µM.

B4: GAAGGGGAG (dsDNA)
DNA 1: GAAGGGGAG
DNA 2: CTCCCCTTC
For B4, the Kd with ZFP SBS#247 and with ZFP SBS#246 was 0.002 µM throughout.

B5: GAGTGGTTA (dsDNA)
DNA 1: GAGTGGTTA
DNA 2: TAACCACTC
On to B5, for which, in the data set with ZFP SBS#207, binding was put at a Kd of 0.07 µM.

B6: GGTGTGGTG (dsDNA)
DNA 1: GGTGTGGTG
DNA 2: CACCACACC
In the case of B6, the results for the Kd with ZFP SBS#233 and in the data set with ZFP SBS#232 were 0.1 µM and 0.05 µM, respectively.

B7: GAGGTCGTA (dsDNA)
DNA 1: GAGGTCGTA
DNA 2: TACGACCTC
Turning to B7, the Kd with ZFP SBS#217 is 0.04 µM.

B8: GATGAGTAC (dsDNA)
DNA 1: GATGAGTAC
DNA 2: GTACTCATC
Molecule B8 registered a Kd with ZFP SBS#223 of 0.105 µM.

B9: GCGGGGGCG (dsDNA)
DNA 1: GCGGGGGCG
DNA 2: CGCCCCCGC
With B9, the values for the Kd with ZFP SBS#250 and with ZFP SBS#249 were 0.07 µM and 0.02 µM, respectively.

B10: GCAGGGGAG (dsDNA)
DNA 1: GCAGGGGAG
DNA 2: CTCCCCTGC
In turn, B10 yielded a Kd with ZFP SBS#240 of 0.001 µM.

B11: GTGGGCGCT (dsDNA)
DNA 1: GTGGGCGCT
DNA 2: AGCGCCCAC
Turning to B11, the Kd with ZFP SBS#243 turned out to be 0.075 µM.

B12: GTAGAGGTG (dsDNA)
DNA 1: GTAGAGGTG
DNA 2: CACCTCTAC
B12: binding with ZFP SBS#235 was put at a Kd of 0.08 µM.

B13: GCAGAAGCG (dsDNA)
DNA 1: GCAGAAGCG
DNA 2: CGCTTCTGC
Take B13: in the data set with ZFP SBS#289, the affinity, expressed as Kd, was 0.8 µM.

B14: GTGGCTGCC (dsDNA)
DNA 1: GTGGCTGCC
DNA 2: GGCAGCCAC
Regarding B14, the Kd was determined as 0.6 µM with ZFP SBS#265 and 0.027 µM with ZFP SBS#264.

B15: GAGGTAGAA (dsDNA)
DNA 1: GAGGTAGAA
DNA 2: TTCTACCTC
In the data set with ZFP SBS#205, B15 returned a Kd of 0.08 µM.

B16: GCAGGGGCC (dsDNA)
DNA 1: GCAGGGGCC
DNA 2: GGCCCCTGC
For B16, the affinity with ZFP SBS#272, expressed as Kd, was 0.02 µM.

B17: TAAGAAGGG (dsDNA)
DNA 1: TAAGAAGGG
DNA 2: CCCTTCTTA
Regarding B17, the Kd with ZFP SBS#245 was 0.235 µM; in the data set with ZFP SBS#244, 0.1 µM.

B18: TGGGAGGTC (dsDNA)
DNA 1: TGGGAGGTC
DNA 2: GACCTCCCA
In the data set with ZFP SBS#225, B18 had a Kd of 0.006 µM.

B19: GGGGCCGGG (dsDNA)
DNA 1: GGGGCCGGG
DNA 2: CCCGGCCCC
As for B19, the results for the Kd in the data set with ZFP SBS#270 and with ZFP SBS#269 were 0.0525 µM and 0.005 µM, respectively.

B20: GGCGGGGAG (dsDNA)
DNA 1: GGCGGGGAG
DNA 2: CTCCCCGCC
As for B20, in the data set with ZFP SBS#239, the dissociation constant (Kd) was determined as 0.0004 µM.

B21: GGGGAGGGG (dsDNA)
DNA 1: GGGGAGGGG
DNA 2: CCCCTCCCC
B21 gave a Kd with ZFP SBS#236 of 0.0003 µM.

B22: GGAGTGGTT (dsDNA)
DNA 1: GGAGTGGTT
DNA 2: AACCACTCC
Consider B22, for which the Kd stood at 0.14 µM with ZFP SBS#211, 0.065 µM with ZFP SBS#210, 0.035 µM with ZFP SBS#209 and 0.4 µM in the data set with ZFP SBS#212.

Values taken from patent US20030068675, “Position dependent recognition of GNN nucleotide triplets by zinc fingers” (published 2003).
